Measurements as given in patent publication US20220259306A1 (SHANGHAI HYAMAB BIOTECH, published 2022).
Where a chain is given by its changes, count along the chain named. Values belong to the binder of their own block, whether it stands above or below them.

What was measured:
[1] = molecular target: T1, hFc-tagged NKG2A/CD94 protein (NKG2A/CD94-hFc), immunogen A (human, UniProt P26715 94-233; Q13241 32-179, biotin-labeled in the Octet assays (site not stated)); test: BLI (Octet), biotinylated HNKG2A/CD94-ECD-Fc on streptavidin sensor, method of Example 5B
T1 construct: Heterodimer of the extracellular domains of NKG2A and CD94, each with hFc; also called human-derived NKG2A/CD94-ECD-Fc; hNKG2A/CD94-ECD-Fc; not shown: human IgG Fc fragment (hFc) of the pCpC vector
T1 sequence (P26715 94-233 limits assumed, chain 1 of 2): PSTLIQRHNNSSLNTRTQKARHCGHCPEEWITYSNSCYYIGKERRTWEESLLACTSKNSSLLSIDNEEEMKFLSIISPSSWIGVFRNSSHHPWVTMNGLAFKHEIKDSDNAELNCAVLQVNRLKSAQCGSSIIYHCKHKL
T1 sequence (Q13241 32-179 limits assumed, chain 2 of 2): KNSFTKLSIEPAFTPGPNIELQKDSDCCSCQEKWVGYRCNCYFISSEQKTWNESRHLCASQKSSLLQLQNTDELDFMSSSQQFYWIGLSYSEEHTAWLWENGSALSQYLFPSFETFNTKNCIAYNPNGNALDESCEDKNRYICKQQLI
From the text: (§1) An Octet red96 instrument (purchased from Fortiebio) was used to determine the affinity constant. The specific operations and methods are based on the instrument manual and the detailed methods provided by the manufacturer. Specifically: using a streptavidin sensor (SA sensor, purchased from Fortiebio) for affinity determination.

[2] = molecular target: T2, monkey NKG2A/CD94 on the cell surface (CHOk1-cNKG2A/CD94 stable cell line) (macaque, UniProt Q9MZJ3 1-233; Q9MZK9 1-179); test: FACS on CHOK1-cNKG2A/CD94 cells
T2 construct: also called macaque NKG2A; cyno NKG2A
T2 sequence (Q9MZJ3 other isoform, or with tags, fused parts or gaps, chain 1 of 2): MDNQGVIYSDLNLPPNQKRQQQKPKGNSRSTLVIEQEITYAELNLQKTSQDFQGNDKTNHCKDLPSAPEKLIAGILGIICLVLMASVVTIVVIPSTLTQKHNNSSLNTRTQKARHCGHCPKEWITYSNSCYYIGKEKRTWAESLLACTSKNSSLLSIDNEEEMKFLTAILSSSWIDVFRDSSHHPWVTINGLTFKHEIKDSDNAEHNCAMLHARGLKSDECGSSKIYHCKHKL
T2 sequence (Q9MZK9 whole entry, chain 2 of 2): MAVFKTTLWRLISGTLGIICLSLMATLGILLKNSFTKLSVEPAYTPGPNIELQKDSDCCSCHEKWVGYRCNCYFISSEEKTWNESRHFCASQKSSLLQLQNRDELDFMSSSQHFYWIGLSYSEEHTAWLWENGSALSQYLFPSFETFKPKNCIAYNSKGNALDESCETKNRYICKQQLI

[3] = molecular target: T1, hFc-tagged NKG2A/CD94 protein …; test: ELISA of scFv supernatant, selection threshold
[4] = molecular target: T2, monkey NKG2A/CD94 on the cell surface …; test: FACS of scFv on cells with macaque NKG2A (cell line not given)
[5] = molecular target: T1, hFc-tagged NKG2A/CD94 protein …; test: BLI (Octet red96), biotinylated immunogen A on streptavidin sensor, antibody in solution
From the text: as §1

[6] = molecular target: T3, human NKG2A/CD94 on the cell surface (CHOk1-hNKG2A/CD94 stable cell line) (human, UniProt P26715 1-233; Q13241 1-179); test: FACS blocking assay: HLA-E binding to NKG2A/CD94 cells in the presence of the antibody
T3 construct: whole, on cells; 93 and 94 are nucleic acids; also called human NKG2A on the cell surface; NKG2A/CD94 cells

[7] = molecular target: T3, human NKG2A/CD94 on the cell surface …; test: FACS blocking assay: HLA-E-PE binding to CHOk1-hNKG2A/CD94 cells in the presence of the antibody
[8] = molecular target: T3, human NKG2A/CD94 on the cell surface …; test: FACS on CHOK1-hNKG2A/CD94 cells, Alexa 488 secondary antibody
[9] = molecular target: T2, monkey NKG2A/CD94 on the cell surface …; test: FACS on CHOK1-cNKG2A/CD94 cells, Alexa 488 secondary antibody
From the text: The pCHO1.0 plasmid containing the nucleotide sequence encoding the full-length amino acid sequence of human-derived NKG2A/CD94 as described in step (2) of Example 1 was transfected into the CHOK1 cell line to obtain a CHOK1 stable cell line containing human NKG2A and CD94 (here referred to as CHOk1-hNKG2A/CD94 stable cell line), the pCHO1.0 plasmid carrying the monkey-derived NKG2A and CD94 full-length genes (the preparation method is the same as the preparation method of pCpC vector with human IgG Fc fragment (hFc) in step (1) “Preparation of immunogen A” in Example 1. The CHOK1 cell line was transfected to obtain the CHOK1 stable cell line containing monkey NKG2A/CD94 (here referred to as the CHOk1-cNKG2A/CD94 stable cell line), the CHOK1-hNKG2C/CD94 stable cell line was prepared with the same method. CHOk1-hNKG2A/CD94 stable cell line, CHOk1-cNKG2A/CD94 stable cell line and CHOK1-hNKG2C/CD94 stable cell line were expanded to 90% confluence in T-75 cell culture flasks, aspirating the medium, washed twice with PBS buffer (purchased from Invitrogen), then treating and collecting the cells with an enzyme-free cell dissociation solution (Versene solution, purchased from Life technology). Washing the cells twice with PBS buffer, after counting the cells, diluting the cells with PBS buffer to 2×10⁶ cells per milliliter, adding 1% goat serum blocking solution, the percentage was the mass percentage, incubated on ice for 30 minutes, and then washed twice with PBS buffer by centrifugation. Suspending the collected cells with FACS buffer (PBS+1%BSA, the percentage was the mass percentage) to 2×10⁶ cells/mL, adding it to 96-wells FACS reaction plate at 100 microliters per well, and adding 100 microliters per well of the purified NKG2A antibody test sample obtained in Example 2, incubated on ice for 2 hours. Washed twice with FACS buffer by centrifugation, and adding 100 microliters of fluorescent (Alexa 488) labeled secondary antibody (purchased from Invitrogen) per well, incubated on ice for 1 hour. Washed 3 times by centrifugation with FACS buffer, then suspending the cells with 100 μl FACS buffer, and using FACS (FACS Calibur, purchased from BD) to detect and analyze the results.

[10] = molecular target: T4, NKG2E protein (human, UniProt Q07444 94-240, limits assumed); test: ELISA on NKG2E protein
T4 construct: construct and source not described
T4 sequence (Q07444 94-240 limits assumed): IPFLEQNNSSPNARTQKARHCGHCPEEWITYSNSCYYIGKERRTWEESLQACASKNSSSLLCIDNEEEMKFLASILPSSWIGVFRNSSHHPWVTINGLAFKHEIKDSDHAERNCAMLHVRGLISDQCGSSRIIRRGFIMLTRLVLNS

[11] = molecular target: T2, monkey NKG2A/CD94 on the cell surface …; test: FACS on CHOK1-cNKG2A/CD94 cells; remark: listed apart in the source

Kd [5]: 0.142 nM
koff [5]: 0.000189 s⁻¹
kon [5]: 1.33e+06 M⁻¹ s⁻¹
IC50 (read off the curve) [6]: ~1 nM
Kd [1]: 0.182 nM
koff [1]: 0.00162 s⁻¹
kon [1]: 8.87e+06 M⁻¹ s⁻¹
IC50 (read off the curve) [7]: ~0.7 nM
EC50 (read off the curve) [8]: ~0.4 nM
EC50 (read off the curve) [9]: ~2 nM
B3: Tab1 (Z270) (antibody, V domains shown)
VH: EVQLVESGGGLVKPGGSLRLSCAASGFTFSSHSMNWVRQAPGKGLEWVSAISSSSSYIYYADSVKGRFTISRDNAKNSLYLQMNSLRAEDTAVYYCAREEWGLPFDYWGQGTLVTVSS
VL: AIQLTQSPSSLSASVGDRVTITCRASQGISSALAWYQQKPGKAPKLLIYDASSLKSGVPSRFSGSGSGTDFTLTISSLQPEDFATYYCQQFNSYPLTFGQGTRLEIK

Kd [5]: 0.0202 nM
koff [5]: 2.26e-05 s⁻¹
kon [5]: 1.12e+06 M⁻¹ s⁻¹
binding result [10]: no binding (tested: 66.67 nM)
EC50 (read off the curve) [9]: ~1 nM
B5: Mab033 (antibody, V domains shown)
VH: EVQLQQSVAEFVRPGASVRLSCTASGFNIENTYIHWLKQRPEQGLEWIGRIDPANGDTQYDPKFQGKATLTAATSSNTAYLQLSGLTSEDTAIYYCTRYGDYLFYYSLKYWGQGTSVTVSS
VL: DIVMTQAAPSVSVTPGESVSISCRSSKSLLHSNGNTYLYWFLQRPGQSPQLLIYRMSNLASGVPDRFSGSGSGTAFTLRISRVEAEDVGVYYCMQHLESPYTFGGGTKLEIK

Kd [5]: 0.0239 nM
koff [5]: 2.45e-05 s⁻¹
kon [5]: 1.03e+06 M⁻¹ s⁻¹
binding result [10]: no binding (tested: 66.67 nM)
EC50 (read off the curve) [9]: ~1 nM
B7: Mab032 (antibody, V domains shown)
VH: EVQLQQSVAELVRPGASVRLSCTGSGFNIENTYMHWLKQRPEQGLEWIGRIDPADGDTQYAPKFQGKATITTDTSSNTAYLQLSSLTSEDTAIYYCARYGNYLFYYSMDYWGQGTSVTVSS
VL: B5 VL with S12P, G73A, V90I, S99Y

The next lines start with the binder.

B1: M15-5 (antibody, V domains shown)
VH: QVQLVQSGAEVKKPGASVKVSCKASGFNIQNTYIHWVKQAPGQGLEWIGKIDPANADTKYAPTFQGRATITADTSTNTAYLELSSLRSEDTAVYYCARYRDYLFYYALGYWGQGTTVTVSS
VL: DIVMTQSPLSLPVTPGEPASISCRSSKSLLHSNANTYLYWYLQKPGQSPQLLIYRMSNLASGVPDRFSGSGSGTDFTLKISRVEAEDVGVYYCMQHLEYPYTFGQGTKLEIK
notes: Humanized; also called humanized NKG2A antibody
Kd [1]: < 0.0104 nM
koff [1]: < 1e-05 s⁻¹
kon [1]: 958000 M⁻¹ s⁻¹
EC50 (read off the curve) [2]: ~1 nM

B2: 2F10-2 (scFv clone) (scFv, V domains shown)
VH: QVQLQQSVAELVRPGASVKLSCTASGFNIKNAYVHWVKQRPEQGLEWIGQIDPANGNTKYAPKFQAKATITADTSSNTVYLQLSSLTSEDTAVYYCARSYLGGQYYFDYSGQGTTLTVSS
VL: DILMTQSPSSMYASLGERVTITCKASQDINSYLSWFQQKPGKSPKTLIYRANRLVDGVPSRFSGSGSGQDYSLTISSLEYEDMGIYYCLQYDEFPLTFGAGTKLEIK
notes: scFv
OD450 nm reading ratio NKG2A/CD94-ECD-Fc / NKG2C/CD94-ECD-Fc [3]: 4
binding result [4]: binds

B4: Mab031 (antibody, V domains shown)
VH: B7 VH with E30Q, M34I, L37V, D55N, Q59K, T72A, A97T, F104Y, M108L
VL: B5 VL with S12P, V88M, S99Y
Kd [5]: 0.0181 nM
koff [5]: 1.84e-05 s⁻¹
kon [5]: 1.02e+06 M⁻¹ s⁻¹
binding result [10]: no binding (tested: 66.67 nM)
EC50 (read off the curve) [9]: ~1 nM

B6: Mpb416 (antibody, V domains shown)
VH: QVQLQQSVAELVRPGASVKLSCTASGFNIQNTYIHWVKQRPEQGLEWIGKIDPANGDTKYAPTFQGKATITADTSSNTAYLQLSSLTPEDTAIYYCARYRDYLFYYALGYWGQGTSVTVSS
VL: B5 VL with A7S, S12P, S99Y
notes: also called 12G8 (as full antibody)
Kd [5]: 0.0104 nM
koff [5]: 1.04e-05 s⁻¹
kon [5]: 995000 M⁻¹ s⁻¹
binding result [10]: no binding (tested: 66.67 nM)
EC50 (read off the curve) [9]: ~0.7 nM

B8: M15 (antibody, V domains shown)
VH: B6 VH with G56A
VL: B5 VL with A7S, S12P, G34A, S99Y
notes: parent of the humanized M15-1 to M15-15; also called M15 antibody; Mpb416-M15
EC50 (read off the curve) [11]: ~0.8 nM
EC50 (read off the curve) [2]: ~0.8 nM
